Results on 1 molecule are retold here after patent US20240092890A1 (JUNTENDO EDUCATIONAL FOUNDATION, published 2024).

Test [1] deals with T1, protein having an Fc region and a His-tag added to the N-terminus of SEQ ID NO: 1.
T1 construct: also called mutant CALR protein (antigen of the BLItz measurement); not shown: Fc region and His-tag at the N-terminus
T1 chain: RRMMRTKMRMRRM
Nature of the test: BLItz biolayer interferometry, Fc/His-SEQ ID NO: 1 protein on the biosensor. Summed up: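 The Fc/His-tagged protein was loaded at 0.1 mg/mL onto Anti-Penta-HIS or Protein A biosensors. Antibodies were run at 500, 100 and 50 nM by biolayer interferometry, and the dissociation constant was derived from these binding curves.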
For orientation: Biolayer interferometry detects binding as a change in optical thickness at a sensor tip.

Test [2] deals with T2, Ins 5 type mutant CALR protein on UT-7/TPO CALR Ins 5 cells (UniProt P27797 18-417).
T2 sequence (looked up): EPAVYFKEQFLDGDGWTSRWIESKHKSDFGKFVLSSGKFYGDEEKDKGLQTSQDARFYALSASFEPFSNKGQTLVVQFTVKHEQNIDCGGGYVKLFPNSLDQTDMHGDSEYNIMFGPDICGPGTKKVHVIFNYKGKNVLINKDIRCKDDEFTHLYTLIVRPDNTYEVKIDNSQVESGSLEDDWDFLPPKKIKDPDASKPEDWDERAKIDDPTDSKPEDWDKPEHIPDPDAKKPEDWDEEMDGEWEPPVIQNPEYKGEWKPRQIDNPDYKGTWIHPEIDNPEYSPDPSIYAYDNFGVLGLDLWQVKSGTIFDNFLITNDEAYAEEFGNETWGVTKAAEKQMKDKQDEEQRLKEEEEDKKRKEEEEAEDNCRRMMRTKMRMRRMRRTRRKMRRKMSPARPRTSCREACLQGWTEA
Nature of the test: cell-based or functional assay.

B1: Antibody 114 (bispecific antibody)
chain 1: DIQMTQSPSSLSASVGDRVTITCLASEDIYSYLAWYQQKPGKAPKLLIFAANRLQSGVPSRFSGSGSGTDFTLTISSLQPEDFATYYCLQGSKFPYTFGPGTKVDIKGGGGSGGGGSGGGGSQVQLVQSGAEVKKPGSSVKVSCKASGYTFTRNFIHWIRQAPGQGLEWIGWIFPGDADTEYNQKFSGRATITADKSTSTAYMELSSLRSEDTAVYYCARGNYNYEYFDYWGQGTMVTVSSGGGGSGGGGSGGGGSDKTHTCPPCPAPEAAGGPSVFLFPPKPKDTLMISRTPEVTCVVVDVSHEDPEVKFNWYVDGVEVHNAKTKPREEQYNSTYRVVSVLTVLHQDWLNGKEYKCKVSNKALPAPIEKTISKAKGQPREPQVCTLPPSREEMTKNQVSLSCAVKGFYPSDIAVEWESNGQPENNYKTTPPVLDSDGSFFLVSKLTVDKSRWQQGNVFSCSVMHEALHNHYTQKSLSLSPGK
chain 2: not shown
The term Kd denotes the equilibrium constant for the complex coming apart. Read a high Kd as a looser complex. Turning to B1, binding in test [1] was characterised by a dissociation constant (Kd) of 6.06 nM. Moreover, the “EC50 of cytotoxic activity (pM)” value in test [2] came out at 790 pM.
